According to patent US20200399311A1:
Non-standard residues stand in square brackets, D forms with d. No end group written: not given here. Hyp = O=C(O)[C@@H]1C[C@@H](O)CN1; NMeI = CC[C@H](C)[C@H](NC)C(=O)O; hArg = N=C(N)NCCCC[C@H](N)C(=O)O; Cit = NC(=O)NCCC[C@H](N)C(=O)O; Nle = CCCC[C@H](N)C(=O)O; APPA = not defined here; Aib = CC(C)(N)C(=O)O

How the values were obtained:
[1] = molecular target: Purified recombinant human PCSK9 (His-tagged, BPS Biosciences) (human) (UniProt Q8NBP7); assay: SPR (Biacore T200), PCSK9 amine-coupled on chip, peptide at 50 µM
Purified recombinant human PCSK9 (His-tagged, BPS Biosciences) (human), sequence (Q8NBP7 31-692 limits assumed): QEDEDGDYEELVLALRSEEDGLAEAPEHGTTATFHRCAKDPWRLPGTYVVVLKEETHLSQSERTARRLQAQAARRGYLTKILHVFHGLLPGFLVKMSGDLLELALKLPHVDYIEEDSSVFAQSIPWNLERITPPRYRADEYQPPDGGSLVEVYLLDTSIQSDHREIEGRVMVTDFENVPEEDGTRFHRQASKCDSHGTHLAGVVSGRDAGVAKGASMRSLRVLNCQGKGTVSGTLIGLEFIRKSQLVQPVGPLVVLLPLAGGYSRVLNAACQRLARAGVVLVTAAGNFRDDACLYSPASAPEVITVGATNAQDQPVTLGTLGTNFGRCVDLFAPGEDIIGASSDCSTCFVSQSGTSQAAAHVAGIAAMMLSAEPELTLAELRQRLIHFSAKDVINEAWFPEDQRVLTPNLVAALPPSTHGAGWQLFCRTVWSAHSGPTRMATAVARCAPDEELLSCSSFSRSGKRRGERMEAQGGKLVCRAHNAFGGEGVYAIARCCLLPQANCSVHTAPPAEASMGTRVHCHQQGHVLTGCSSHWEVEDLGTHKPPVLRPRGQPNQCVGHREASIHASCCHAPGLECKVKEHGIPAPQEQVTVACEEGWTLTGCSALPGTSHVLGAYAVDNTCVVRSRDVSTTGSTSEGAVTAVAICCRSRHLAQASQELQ

[2] = molecular target: Purified recombinant human PCSK9 (His-tagged, BPS Biosciences) (human) (UniProt Q8NBP7); assay: SPR (Biacore T200), PCSK9 amine-coupled on chip, peptide at 100 µM

Binding - Response Unit (RU) [1] [RU] | Binding - Response Unit (RU) [2] [RU] | Binder
3 | 7.5 | SIPWN[Aib]ERITPC [Short chain peptide Seq. ID. No. 10 (SIPWN-Aib-ERITPC)]
5.7 | 13.2 | SI[Hyp]WNLERITPC [Short chain peptide Seq. ID. No. 8 (SI-Hyp-…)]
6.55 | 17.5 | SIPWNLE[hArg]ITPC [Short chain peptide Seq. ID. No. 6 (SIPWNLE-Har-ITPC)]
6.65 | 16 | SIPWN[Nle]ERITPC [Short chain peptide Seq. ID. No. 7 (SIPWN-Nle-ERITPC)]
3.1 | 6.7 | SIPWNLE[Cit]ITPC [Short chain peptide Seq. ID. No. 12 (SIPWNLE-Cit-ITPC)]
7.1 | 15 | [Aib]IPWNLERITPC [Short chain peptide Seq. ID. No. 14 (Aib-…)]
13.1 | 30 | SIPWNLER[Nle]TPC [Short chain peptide Seq. ID. No. 4 (SIPWNLER-Nle-TPC)]
35.1 | 85.9 | SIP[Bip(OMe)]NLERITPC [Short chain peptide Seq. ID. No. 19 (SIP-Bip(OMe)-NLERITPC)]
10.2 | 17.9 | SIP[APPA]NLERITPC (reading uncertain) [Short chain peptide Seq. ID. No. 18 (SIP-APPA-NLERITPC)]
11.4 | 29.9 | S[NMeI]IPWNLERITPC [Short chain peptide Seq. ID. No. 15 (S-(N-Me-Ile)-…)]
2.3 | 7.1 | SIPWNLER[Aib]TPC [Short chain peptide Seq. ID. No. 5 (SIPWNLER-Aib-TPC)]
9.75 | 37.4 | SIPWNLERI[Aib]PC [Short chain peptide Seq. ID. No. 13 (…-Aib-PC)]
